Laboratory results taken from US20110300138A1 (published 2011).

Experiments:
[1] = target: TSH receptor (full length human TSHR) coated on tubes (human) (UniProt P16473); test: 125I-TSH bound to TSHR coated tubes, in assay buffer
[2] = target: TSH receptor (full length human TSHR) coated on tubes (human) (UniProt P16473); test: 125I-TSH bound to TSHR coated tubes, in HBD pool serum
[3] = target: human thyroid stimulating hormone receptor (TSHR), full length (human) (UniProt P16473); test: 125I-K1-18 Fab competition, TSHR coated tubes; 0.01 µg/mL in HBD
[4] = target: human thyroid stimulating hormone receptor (TSHR), full length (human) (UniProt P16473); test: 125I-K1-18 Fab competition, TSHR coated tubes; 0.001 µg/mL in assay buffer
[5] = target: TSHR260-alkaline phosphatase (TSHR260-AP) (human) (UniProt P05187); test: TSHR260-AP bridge ELISA, full length TSHR on wells; 10 µg/mL, diluted in HBD
[6] = target: TSHR260-alkaline phosphatase (TSHR260-AP) (human) (UniProt P05187); test: TSHR260-AP bridge ELISA, full length TSHR on wells; 0.1 µg/mL, diluted in HBD
[7] = target: TSHR260-alkaline phosphatase (TSHR260-AP) (human) (UniProt P05187); test: TSHR260-AP bridge ELISA, full length TSHR on wells; 250 µg/mL, diluted in HBD
[8] = target: TSHR260-alkaline phosphatase (TSHR260-AP) (human) (UniProt P05187); test: TSHR260-AP bridge ELISA, full length TSHR on wells; 0.005 µg/mL, diluted in HBD
[9] = target: TSHR260-alkaline phosphatase (TSHR260-AP) (human) (UniProt P05187); test: TSHR260-AP bridge ELISA, full length TSHR on wells; 10 µg/mL, diluted in assay buffer
[10] = target: TSHR260-alkaline phosphatase (TSHR260-AP) (human) (UniProt P05187); test: TSHR260-AP bridge ELISA, full length TSHR on wells; 0.1 µg/mL, diluted in assay buffer
[11] = target: TSHR260-alkaline phosphatase (TSHR260-AP) (human) (UniProt P05187); test: TSHR260-AP bridge ELISA, full length TSHR on wells; 0.005 µg/mL, diluted in assay buffer
[12] = target: TSH receptor (TSHR), full length human, coated on tubes (human) (UniProt P16473); test: inhibition of 125I-TSH binding to TSHR coated tubes; 0.001 µg/mL, diluted in HBD serum pool
[13] = target: TSH receptor (TSHR), full length human, coated on tubes (human) (UniProt P16473); test: inhibition of 125I-TSH binding to TSHR coated tubes; 0.003 µg/mL, diluted in HBD serum pool
[14] = target: TSH receptor (TSHR) coated on tubes (human) (UniProt P16473); test: inhibition of 125I-K1-70 IgG binding to TSHR coated tubes; sample 0.01 µg/mL in HBD serum pool
[15] = target: human TSH receptor (full length), coated on tubes (human) (UniProt P16473); test: inhibition of 125I-K1-70 Fab (competitor) binding to TSHR coated tubes; 0.03 µg/mL in HBD serum pool
[16] = target: human TSH receptor (full length), coated on tubes (human) (UniProt P16473); test: inhibition of 125I-K1-70 Fab (competitor) binding to TSHR coated tubes; 0.003 µg/mL in HBD serum pool
[17] = target: TSH receptor (full length human TSHR) coated on tubes (human) (UniProt P16473); test: 125I-TSH binding inhibition, TSHR coated tubes; 0.5 units/L, in serum
[18] = target: TSH receptor (full length human TSHR) coated on tubes (human) (UniProt P16473); test: 125I-TSH binding inhibition, TSHR coated tubes; 1.0 units/L, in serum
[19] = target: TSH receptor (full length human TSHR) coated on tubes (human) (UniProt P16473); test: 125I-TSH binding inhibition, TSHR coated tubes; 2.0 units/L, in serum
[20] = target: TSH receptor (full length human TSHR) coated on tubes (human) (UniProt P16473); test: 125I-TSH binding inhibition, TSHR coated tubes; 4.0 units/L, in serum
[21] = target: TSH receptor (full length human TSHR) coated on tubes (human) (UniProt P16473); test: 125I-TSH binding inhibition, TSHR coated tubes; 8.0 units/L, in serum
[22] = target: TSH receptor (full length human TSHR) coated on tubes (human) (UniProt P16473); test: 125I-TSH binding inhibition, TSHR coated tubes; 0.25 units/L, in serum
[23] = target: TSH receptor (full length human TSHR) coated on tubes (human) (UniProt P16473); test: 125I-TSH binding inhibition, TSHR coated tubes; 40.0 units/L, in serum
[24] = target: TSH receptor (full length human TSHR) coated on tubes (human) (UniProt P16473); test: 125I-TSH binding inhibition, TSHR coated tubes; 0.125 units/L, in serum
[25] = target: TSH receptor (full length human TSHR) coated on tubes (human) (UniProt P16473); test: 125I-TSH binding inhibition, TSHR coated tubes; 0.5 units/L, in assay buffer
[26] = target: TSH receptor (full length human TSHR) coated on tubes (human) (UniProt P16473); test: 125I-TSH binding inhibition, TSHR coated tubes; 1.0 units/L, in assay buffer
[27] = target: TSH receptor (full length human TSHR) coated on tubes (human) (UniProt P16473); test: 125I-TSH binding inhibition, TSHR coated tubes; 2.0 units/L, in assay buffer
[28] = target: TSH receptor (full length human TSHR) coated on tubes (human) (UniProt P16473); test: 125I-TSH binding inhibition, TSHR coated tubes; 4.0 units/L, in assay buffer
[29] = target: TSH receptor (full length human TSHR) coated on tubes (human) (UniProt P16473); test: 125I-TSH binding inhibition, TSHR coated tubes; 8.0 units/L, in assay buffer
[30] = target: TSH receptor (full length human TSHR) coated on tubes (human) (UniProt P16473); test: 125I-TSH binding inhibition, TSHR coated tubes; 0.25 units/L, in assay buffer
[31] = target: TSH receptor (full length human TSHR) coated on tubes (human) (UniProt P16473); test: 125I-TSH binding inhibition, TSHR coated tubes; 40.0 units/L, in assay buffer
[32] = target: TSH receptor (full length human TSHR) coated on tubes (human) (UniProt P16473); test: 125I-TSH binding inhibition, TSHR coated tubes; 0.125 units/L, in assay buffer
[33] = target: TSH receptor (full length human TSHR) coated on tubes (human) (UniProt P16473); test: 125I-TSH binding to TSHR coated tubes, in assay buffer, no inhibitor
[34] = target: TSH receptor (full length human TSHR) coated on tubes (human) (UniProt P16473); test: 125I-TSH binding to TSHR coated tubes, in HBD serum pool, no inhibitor
[35] = target: TSH receptor (TSHR), full length human, coated on tubes (human) (UniProt P16473); test: binding of 125I-TSH to TSHR coated tubes, in assay buffer, no competitor
[36] = target: TSH receptor (TSHR), full length human, coated on tubes (human) (UniProt P16473); test: as above; remark: listed apart in the source
[37] = target: TSH receptor (TSHR), full length human, coated on tubes (human) (UniProt P16473); test: binding of 125I-TSH to TSHR coated tubes, in HBD serum pool, no competitor
[38] = target: TSHR coated tubes (full length TSHR) (human) (UniProt P16473); test: 125I-TSH binding to TSHR coated tubes in assay buffer only (no competitor)
[39] = target: TSHR260-AP (fusion protein consisting of a fragment of human TSHR, amino acids 22-260, with alkaline phosphatase) (human); test: bridging ELISA: full length TSHR on wells, TSHR260-AP in liquid phase; IgG 1 µg/mL in HBD serum
[40] = target: TSHR260-AP (fusion protein consisting of a fragment of human TSHR, amino acids 22-260, with alkaline phosphatase) (human); test: as above; remark: listed apart in the source
[41] = target: TSHR260-AP (fusion protein consisting of a fragment of human TSHR, amino acids 22-260, with alkaline phosphatase) (human); test: bridging ELISA: full length TSHR on wells, TSHR260-AP in liquid phase; IgG 10 µg/mL in HBD serum
[42] = target: TSHR260-AP (fusion protein consisting of a fragment of human TSHR, amino acids 22-260, with alkaline phosphatase) (human); test: as above; remark: listed apart in the source
[43] = target: TSHR260-AP (fusion protein consisting of a fragment of human TSHR, amino acids 22-260, with alkaline phosphatase) (human); test: bridging ELISA: full length TSHR on wells, TSHR260-AP in liquid phase; IgG 0.1 µg/mL in HBD serum
[44] = target: TSHR260-AP (fusion protein consisting of a fragment of human TSHR, amino acids 22-260, with alkaline phosphatase) (human); test: bridging ELISA: full length TSHR on wells, TSHR260-AP in liquid phase; IgG 0.5 µg/mL in HBD serum
[45] = target: TSHR260-AP (fusion protein consisting of a fragment of human TSHR, amino acids 22-260, with alkaline phosphatase) (human); test: bridging ELISA: full length TSHR on wells, TSHR260-AP in liquid phase; IgG 0.1 µg/mL in HBD serum; remark: listed apart in the source
[46] = target: TSHR260-AP (fusion protein consisting of a fragment of human TSHR, amino acids 22-260, with alkaline phosphatase) (human); test: bridging ELISA: full length TSHR on wells, TSHR260-AP in liquid phase; IgG 0.5 µg/mL in HBD serum; remark: listed apart in the source
[47] = target: TSHR260-AP (fusion protein consisting of a fragment of human TSHR, amino acids 22-260, with alkaline phosphatase) (human); test: bridging ELISA: full length TSHR on wells, TSHR260-AP in liquid phase; IgG 0.01 µg/mL in HBD serum
[48] = target: TSHR260-AP (fusion protein consisting of a fragment of human TSHR, amino acids 22-260, with alkaline phosphatase) (human); test: bridging ELISA: full length TSHR on wells, TSHR260-AP in liquid phase; IgG 0.05 µg/mL in HBD serum
[49] = target: TSHR260-AP (fusion protein consisting of a fragment of human TSHR, amino acids 22-260, with alkaline phosphatase) (human); test: bridging ELISA: full length TSHR on wells, TSHR260-AP in liquid phase; IgG 0.01 µg/mL in HBD serum; remark: listed apart in the source
[50] = target: TSHR260-AP (fusion protein consisting of a fragment of human TSHR, amino acids 22-260, with alkaline phosphatase) (human); test: bridging ELISA: full length TSHR on wells, TSHR260-AP in liquid phase; IgG 0.05 µg/mL in HBD serum; remark: listed apart in the source
[51] = target: TSHR260-AP (fusion protein consisting of a fragment of human TSHR, amino acids 22-260, with alkaline phosphatase) (human); test: bridging ELISA: full length TSHR on wells, TSHR260-AP in liquid phase; IgG 0.005 µg/mL in HBD serum
[52] = target: TSHR260-AP (fusion protein consisting of a fragment of human TSHR, amino acids 22-260, with alkaline phosphatase) (human); test: as above; remark: listed apart in the source

## 125I-TSH (ligand)
[1]
  125I-TSH binding (%): 17.7%
[2]
  125I-TSH binding (%): 16%

## M22 Fab
[3]
  Inhibition of binding (%): 20.4%
[4]
  Inhibition of binding (%): -0.7%
[5]
  Mean absorbance at 405 nm (absorbance at 405 nm): 0.01
[6]
  Mean absorbance at 405 nm (absorbance at 405 nm): -0.007
[7]
  Mean absorbance at 405 nm (absorbance at 405 nm): 0.031
[8]
  Mean absorbance at 405 nm (absorbance at 405 nm): -0.013
[9]
  Mean absorbance at 405 nm (absorbance at 405 nm): 0.034
[10]
  Mean absorbance at 405 nm (absorbance at 405 nm): 0.015
[11]
  Mean absorbance at 405 nm (absorbance at 405 nm): -0.004
[12]
  Inhibition of binding (%): -11.2%
[13]
  Inhibition of binding (%): -7.9%
[14]
  Inhibition of binding (%): 34%
[15]
  Inhibition of binding (%): 66.8%
[16]
  Inhibition of binding (%): 11.5%

## WHO reference preparation NIBSC 90/672
[17]
  Inhibition of binding (%): 5.6%
[18]
  Inhibition of binding (%): 8.1%
[19]
  Inhibition of binding (%): 18.2%
[20]
  Inhibition of binding (%): 34.8%
[21]
  Inhibition of binding (%): 65.3%
[22]
  Inhibition of binding (%): 0%
[23]
  Inhibition of binding (%): 90.9%
[24]
  Inhibition of binding (%): 0%
[25]
  Inhibition of binding (%): 3.1%
[26]
  Inhibition of binding (%): 14%
[27]
  Inhibition of binding (%): 26.2%
[28]
  Inhibition of binding (%): 49%
[29]
  Inhibition of binding (%): 62.7%
[30]
  Inhibition of binding (%): 0%
[31]
  Inhibition of binding (%): 91%
[32]
  Inhibition of binding (%): 0%

## ^125I-TSH (ligand)
[33]
  % binding: 10.8%
[34]
  % binding: 12.4%
[35]
  ^125I-TSH binding (%): 11%
[36]
  ^125I-TSH binding (%): 13.4%
[37]
  ^125I-TSH binding (%): 11.5%
[38]
  % of ^125I-TSH binding: 12.4%

## M22 IgG (human monoclonal thyroid stimulating autoantibody, hMAb TSHR1)
[39]
  Mean absorbance at 405 nm (absorbance at 405 nm): 1.09
[40]
  Mean absorbance at 405 nm (absorbance at 405 nm): 1.17
[41]
  Mean absorbance at 405 nm (absorbance at 405 nm): 1.27
[42]
  Mean absorbance at 405 nm (absorbance at 405 nm): 1.36
[43]
  Mean absorbance at 405 nm (absorbance at 405 nm): 0.548
[44]
  Mean absorbance at 405 nm (absorbance at 405 nm): 1.02
[45]
  Mean absorbance at 405 nm (absorbance at 405 nm): 0.599
[46]
  Mean absorbance at 405 nm (absorbance at 405 nm): 1.09
[47]
  Mean absorbance at 405 nm (absorbance at 405 nm): 0.043
[48]
  Mean absorbance at 405 nm (absorbance at 405 nm): 0.292
[49]
  Mean absorbance at 405 nm (absorbance at 405 nm): 0.064
[50]
  Mean absorbance at 405 nm (absorbance at 405 nm): 0.332
[51]
  Mean absorbance at 405 nm (absorbance at 405 nm): 0.011
[52]
  Mean absorbance at 405 nm (absorbance at 405 nm): 0.032
